The values below come from patent publication US20190203224A1.

Assay [1] has as its target Brush border membrane vesicles (BBMV) prepared from midguts of third instar western corn rootworm (Diabrotica virgifera virgifera LeConte) larvae; putative receptor(s) on the BBMV (Diabrotica virgifera virgifera).
Assay [2] shares this target. The source holds these as a separate data set.

For orientation: Kd means a measure of binding affinity in units of concentration. With “Cry3Aa trypsin core (trypsin-truncated Cry3Aa core protein) (from UniProt P0A379 159-644)”, the Kd in assay [1] came to 0.024 µM. The substance also displayed a Bmax (binding site concentration) (pmole/ug BBMV) in assay [2] of 146.

The substance “Cry35Ab1 chymotrypsin core (chymotrypsin-truncated Cry35Ab1 core protein) (from UniProt Q939S9 1-354)” showed a Kd in assay [1] of 0.00231 µM. Besides, in assay [2], the Bmax (binding site concentration) (pmole/ug BBMV) was found to be 31.7.
